From patent US20260049134A1

Molecular target: SELL (L-Selectin)
Test: ELISA on coated SELL-Fc-His, 150 ng IgG1; None 0.096

Sequence of SELL (L-Selectin) (chain, as listed by the source limits assumed): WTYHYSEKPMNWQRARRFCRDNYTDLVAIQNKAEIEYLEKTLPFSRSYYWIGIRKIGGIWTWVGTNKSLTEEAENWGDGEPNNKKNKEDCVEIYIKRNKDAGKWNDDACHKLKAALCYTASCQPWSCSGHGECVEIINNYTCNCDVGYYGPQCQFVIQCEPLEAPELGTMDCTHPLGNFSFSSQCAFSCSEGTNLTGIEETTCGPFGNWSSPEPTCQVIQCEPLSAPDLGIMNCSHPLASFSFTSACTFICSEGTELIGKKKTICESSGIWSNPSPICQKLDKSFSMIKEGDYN

- ELISA Absorbance (405 nm-570 nm): 0.188
B1: HW-28 chimeric rabbit-human IgG1 LA/LA/PG (antibody, V domains shown)
VH: QKQLVESGGRLVTPGTPLTLTCTASGFSLSSNAMSWVRQAPGEGLQWIGTISSGGSTYYASWAKGRFTISKTSTTVTLKMTSLTTEDTATYFCARGADLHRLWGPGTLVTVSS
VL: SFVLTQPASVQVNLGQTVSLTCTGKPLSRSFASWYQQKPGQAPVLVIYRDTSRPSGVPDRFSGSSSGNTATLTISGAQAGDEADYYCATSDGSGSSYQYVFGGGTQLTVTG
